The target of experiment [1] is full-length human LOXL2 protein (human) (UniProt Q9Y4K0). The experiment is described as follows: cell-based or functional assay.
Experiment [2] has the same target. The experiment is described as follows: ELISA, LOXL2 coated.

IC50′ (nM), inhibition of LOXL2 enzymatic activity (Amplex Red assay); substrate DAP, collagen and Kd data for 1 molecule are collected here from patent US20140302524A1.

Chain of UniProt Q9Y4K0 (Q9Y4K0 other isoform, or with tags, fused parts or gaps): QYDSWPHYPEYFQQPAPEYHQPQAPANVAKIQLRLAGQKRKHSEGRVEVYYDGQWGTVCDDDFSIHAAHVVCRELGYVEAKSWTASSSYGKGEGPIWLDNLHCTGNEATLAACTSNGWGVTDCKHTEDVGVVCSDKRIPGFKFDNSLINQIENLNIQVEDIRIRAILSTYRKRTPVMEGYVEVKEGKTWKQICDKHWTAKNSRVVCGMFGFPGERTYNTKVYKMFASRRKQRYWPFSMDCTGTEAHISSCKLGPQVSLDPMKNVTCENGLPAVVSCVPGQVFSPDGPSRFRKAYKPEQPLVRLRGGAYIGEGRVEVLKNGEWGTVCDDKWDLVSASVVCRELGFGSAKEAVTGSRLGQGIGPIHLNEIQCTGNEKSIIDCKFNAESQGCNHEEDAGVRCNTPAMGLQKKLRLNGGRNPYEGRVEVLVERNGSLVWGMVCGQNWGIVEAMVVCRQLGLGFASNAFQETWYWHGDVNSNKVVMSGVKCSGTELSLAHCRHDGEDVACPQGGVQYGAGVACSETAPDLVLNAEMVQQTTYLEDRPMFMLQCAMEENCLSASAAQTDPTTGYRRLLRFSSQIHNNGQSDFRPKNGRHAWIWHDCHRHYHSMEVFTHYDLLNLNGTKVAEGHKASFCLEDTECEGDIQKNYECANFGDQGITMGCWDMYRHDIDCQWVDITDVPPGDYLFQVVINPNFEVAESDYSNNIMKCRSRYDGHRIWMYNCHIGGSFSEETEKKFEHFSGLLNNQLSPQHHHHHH

B1: AB0023 (antibody, from another filing, V domains shown)
VH: QVQLQQSGAELVRPGTSVKVSCKASGYAFTYYLIEWVKQRPGQGLEWIGVINPGSGGTNYNEKFKGKATLTADKSSSTAYMQLSSLTSDDSAVYFCARNWMNFDYWGQGTTLTVSS
VL: DIVMTQAAPSVSVTPGESVSISCRSSKSLLHSNGNTYLYWFLQRPGQSPQFLIYRMSNLASGVPDRFSGSGSGTAFTLRISRVEAEDVGVYYCMQHLEYPYTFGGGTKLEIK
With B1, in experiment [1], the IC50′ (nM), inhibition of LOXL2 enzymatic activity (Amplex Red assay); substrate DAP, collagen came to 62 nM. Besides, the Kd in experiment [2] is less than 1 nM.
